From PMC7498345 (Nucleic Acids Research, 2020)
Substitutions are numbered along the chain they refer to. In names and notes the source's numbering stands.

B1: C82A (protein, UniProt Q8IWS0 2-365, looked up, variant C82A)
PHD finger protein 6: SSSVEQKKGPTRQRKCGFCKSNRDKECGQLLISENQKVAAHHKCMLFSSALVSSHSDNESLGGFSIEDVQKEIKRGTKLMASLCHCPGATIGCDVKTCHRTYHYHCALHDKAQIREKPSQGIYMVYCRKHKKTAHNSEADLEESFNEHELEPSSPKSKKKSRKGRPRKTNFKGLSEDTRSTSSHGTDEMESSSYRDRSPHRSSPSDTRPKCGFCHVGEEENEARGKLHIFNAKKAAAHYKCMLFSSGTVQLTTTSRAEFGDFDIKTVLQEIKRGKRMKCTLCSQPGATIGCEIKACVKTYHYHCGVQDKAKYIENMSRGIYKLYCKNHSGNDERDEEDEERESKSRGKVEIDQQQLTQQQLNGN
B2: R129A (protein, UniProt Q8IWS0 2-365, looked up, variant R129A)
PHD finger protein 6: B1 PHD finger protein 6 with A81C, R128A
B3: M125A (protein, UniProt Q8IWS0 2-365, looked up, variant M125A)
PHD finger protein 6: B1 PHD finger protein 6 with A81C, M124A
B4: PHF6 WT: PHF6 WT expressed as GST fusion protein in E. coli Rosetta (DE3) cells (protein)
chain: MSSSVEQKKGPTRQRKCGFCKSNRDKECGQLLISENQKVAAHHKCMLFSSALVSSHSDNESLGGFSIEDVQKEIKRGTKLMCSLCHCPGATIGCDVKTCHRTYHYHCALHDKAQIREKPSQGIYMVYCRKHKKTAHNSEADLEESFNEHELEPSSPKSKKKSRKGRPRKTNFKGLSEDTRSTSSHGTDEMESSSYRDRSPHRSSPSDTRPKCGFCHVGEEENEARGKLHIFNAKKAAAHYKCMLFSSGTVQLTTTSRAEFGDFDIKTVLQEIKRGKRMKCTLCSQPGATIGCEIKACVKTYHYHCGVQDKAKYIENMSRGIYKLYCKNHSGNDERDEEDEERESKSRGKVEIDQQQLTQQQLNGN
modifications: labeled with the dye NT-647 (Cy5), in the MST only; left off: GST, end not stated, kept
B5: E223S: H2BK12Ac unrecognizable MT of extended PHD2 (protein)
chain: B4 chain with E223S
modifications: labeled with the dye NT-647 (Cy5), in the MST only; left off: GST, end not stated, kept

How the values were obtained:
GST-PHF6 WT = GST-PHF6 WT (UniProt Q8IWS0); test: MST
[1] = test system: H2BK120 of H2B WT-containing mono-nucleosomes; test: In vitro ubiquitination assay, H2B-Flag WT mono-nucleosomes; format: biochemical; conditions: GST-PHF6 WT/MTs as E3; E1, E2, ubiquitin, 50 μM ZnCl2; 37°C, 1 h

Row | fold higher affinity than for the H2B WT peptide (GST-PHF6 WT) [fold] | Molecule | E3 ubiquitin ligase activity for H2BK120 [1]
1 | 5 | H2B peptide (1:20) with K12Ac modification | 
2 |  | B1 | neither C82A (functional activity dead MT of extended PHD1 by disrupting Zinc ion capturing) nor E223S (H2BK12Ac unrecognizable MT of extended PHD2) were able to ubiquitinate H2BK120
3 |  | B2 | indispensable for E3 ligase activity of PHF6
4 |  | B3 | indispensable for E3 ligase activity of PHF6
5 |  | B4 | able to ubiquitinate H2BK120
6 |  | B5 | neither C82A (functional activity dead MT of extended PHD1 by disrupting Zinc ion capturing) nor E223S (H2BK12Ac unrecognizable MT of extended PHD2) were able to ubiquitinate H2BK120
